Our source for the activation of PLD1, half-maximal activation of PLD1 activity (headgroup release assay) and stimulation of PLD1 activity values is patent publication US20030124108A1.

The target in this assay is purified PLD1 (isoform not distinguished in Example 4) (human). Kind of assay: cell-based or functional assay.

Take “human cdc42 with … at the amino terminus (from UniProt P60953 1-188)”: the activation of PLD1 at a maximally effective concentration (cdc42 5.5 M as printed) was 10 fold, the half-maximal activation of PLD1 activity (headgroup release assay) was 1 M and the stimulation of PLD1 activity was 5 fold.

The substance “human RhoA with … at the amino terminus (from UniProt P61586 1-190)” showed an activation of PLD1 at a maximally effective concentration (RhoA 3.8 M as printed) of 13 fold, a half-maximal activation of PLD1 activity (headgroup release assay) of 1 M and a stimulation of PLD1 activity of 10 fold.

“human protein kinase C- (isoform letter lost in print) (from UniProt P17252 2-672) (enzyme)” came in with an activation of PLD1 at a maximally effective concentration (PMA-activated PKC- 0.043 M as printed) of 28 fold.

Regarding “human ADP-ribosylation factor 1 (ARF1) (from UniProt P84077 2-181)”, the activation of PLD1 at a maximally effective concentration (ARF1 4.7 M as printed) amounted to 49 fold, the half-maximal activation of PLD1 activity (headgroup release assay) worked out at 0.2 M and the stimulation of PLD1 activity is 50 fold.
